This note sets out measurements from patent US20040005550A1, “Methods and compositions useful for targeting activated vitronectin receptor alphavbeta3” (The Scripps Research Institute, priority 1998, published 2004).

The assay has as its target T1, αvβ3 expressed in CHO cells (Homo sapiens, UniProt P05106+P06756).
T1 construct: cDNAs encoding full-length human αv and β3 were subcloned into pcDNA3 and pCDM8; expressed in transfected cells
The assay is described as follows: Flow cytometry ligand binding to αvβ3-CHO cells. The conditions noted are these: in presence of antibody AP5; 2 mM RGDS, 50 μM cRGDfV, 1 μM Integrilin, 100 μg/ml LM609. The method, then:
Binding of aPB, WOW-1 Fab and FITC-fibrinogen to cells was assessed by flow cytometry. Typically, cells were cultured overnight in low serum medium (e.g., 0.5% fetal bovine serum), resuspended in incubation buffer at 1-1.5×10^7 cells/ml, and 4-6×10^5 cells were incubated with one of these ligands for 30 min at room temperature in a final volume of 50 μl. […] In some experiments, ligand binding and αvβ3 expression were measured simultaneously by incubation of cells with ligands in the presence of biotin-SSA6 (7 μg/ml), a non-function-blocking anti-β3 monoclonal antibody (Abrams, C., Deng, J., Steiner, B., and Shattil, S. J. (1994) J. Biol. Chem. 269, 18781-18788). After 30 min at room temperature, cells were washed and incubated with phycoerythrin-streptavidin (1:25 final dilution; Molecular Probes) for 20 min on ice. In the case of WOW-1 Fab, an Alexa-conjugated anti-(His)6 monoclonal antibody (Accurate Chemical and Scientific Corp., Westbury, N.Y.) was added at this stage (50 μg/ml). Cells were washed and resuspended in 0.5 ml incubation buffer containing 2 μg/ml propidium iodide (Sigma, St. Louis, Mo.). Ligand binding (FL1 channel) was analyzed immediately on the gated subset of live cells (propidium iodide-negative, FL3) that was strongly positive for αvβ3 expression (FL2). […]
On the technique in general: A flow cytometer gives signals particle by particle.

T1 sequence (P06756 31-889 limits assumed): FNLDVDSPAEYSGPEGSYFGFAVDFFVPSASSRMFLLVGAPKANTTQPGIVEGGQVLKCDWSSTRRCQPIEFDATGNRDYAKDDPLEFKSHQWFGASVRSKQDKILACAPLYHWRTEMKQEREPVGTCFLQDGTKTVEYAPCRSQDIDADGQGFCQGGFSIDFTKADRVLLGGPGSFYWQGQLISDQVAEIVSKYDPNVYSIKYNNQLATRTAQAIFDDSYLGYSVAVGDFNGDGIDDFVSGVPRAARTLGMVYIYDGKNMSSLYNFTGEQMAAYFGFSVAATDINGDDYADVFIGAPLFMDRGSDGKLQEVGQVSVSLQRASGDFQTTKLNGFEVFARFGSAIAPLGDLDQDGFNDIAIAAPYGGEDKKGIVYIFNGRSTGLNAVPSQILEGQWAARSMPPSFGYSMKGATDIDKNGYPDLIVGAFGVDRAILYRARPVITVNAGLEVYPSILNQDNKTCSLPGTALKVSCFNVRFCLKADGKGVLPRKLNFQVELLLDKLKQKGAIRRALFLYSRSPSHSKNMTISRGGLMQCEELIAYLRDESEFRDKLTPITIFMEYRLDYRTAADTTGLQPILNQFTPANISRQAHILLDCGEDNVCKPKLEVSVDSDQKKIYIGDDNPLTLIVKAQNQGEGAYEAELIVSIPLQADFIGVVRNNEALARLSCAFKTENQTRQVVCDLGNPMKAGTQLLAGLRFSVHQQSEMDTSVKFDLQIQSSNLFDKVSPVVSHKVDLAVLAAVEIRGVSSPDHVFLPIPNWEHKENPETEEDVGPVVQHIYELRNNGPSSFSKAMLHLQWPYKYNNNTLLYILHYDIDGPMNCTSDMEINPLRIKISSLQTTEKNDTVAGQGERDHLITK
T1 sequence (P06756 891-1048 partner limits assumed): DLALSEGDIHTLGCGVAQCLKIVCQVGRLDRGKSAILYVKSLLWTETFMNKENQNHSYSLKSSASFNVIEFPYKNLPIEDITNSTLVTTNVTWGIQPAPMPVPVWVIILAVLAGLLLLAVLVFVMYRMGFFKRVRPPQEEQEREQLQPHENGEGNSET
T1 sequence (P05106 27-788): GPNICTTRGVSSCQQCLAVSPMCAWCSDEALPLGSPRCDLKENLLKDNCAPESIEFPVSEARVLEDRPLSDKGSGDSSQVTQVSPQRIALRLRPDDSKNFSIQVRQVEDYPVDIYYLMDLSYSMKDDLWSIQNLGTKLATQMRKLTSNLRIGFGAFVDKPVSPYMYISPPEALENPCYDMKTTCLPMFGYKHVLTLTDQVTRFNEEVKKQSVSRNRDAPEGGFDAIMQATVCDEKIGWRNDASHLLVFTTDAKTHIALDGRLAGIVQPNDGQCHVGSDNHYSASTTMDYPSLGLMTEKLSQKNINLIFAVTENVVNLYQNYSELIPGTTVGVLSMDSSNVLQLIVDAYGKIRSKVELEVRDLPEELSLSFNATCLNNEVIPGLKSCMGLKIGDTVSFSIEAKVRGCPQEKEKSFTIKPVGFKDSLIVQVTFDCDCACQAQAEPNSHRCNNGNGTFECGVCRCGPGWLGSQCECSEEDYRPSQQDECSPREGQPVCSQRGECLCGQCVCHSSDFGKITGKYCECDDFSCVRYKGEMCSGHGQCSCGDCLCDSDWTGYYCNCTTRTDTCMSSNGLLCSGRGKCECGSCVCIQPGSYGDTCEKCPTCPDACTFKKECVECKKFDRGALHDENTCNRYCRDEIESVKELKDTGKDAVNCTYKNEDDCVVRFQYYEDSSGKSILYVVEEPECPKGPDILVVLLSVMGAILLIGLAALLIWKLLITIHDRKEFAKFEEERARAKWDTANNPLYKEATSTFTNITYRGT

B1: LM609: αvβ3-specific function-blocking monoclonal antibody (antibody, V domains shown)
VH: EVQLEESGGGLVKPGGSLKLSCAASGFAFSSYDMSWVRQIPEKRLEWVAKVSSGGGSTYYLDTVQGRFTISRDNAKNTLYLQMSSLNSEDTAMYYCARHNYGSFAYWGQGTLVTVSA
VL: ELVMTQTPATLSVTPGDSVSLSCRASQSISNHLHWYQQKSHESPRLLIKYASQSISGIPSRFSGSGSGTDFTLSINSVETEDFGMYFCQQSNSWPHTFGGGTKLEIKRA
For B1, the “inhibition of aPB and WOW-1 Fab binding” value was “more than 70%”.
